Source: the supplement of paper PMC10724198
± gives the standard deviation of the averaged measurements.

tested on: Saccharomyces cerevisiae; assay: protein stability index of tFT-peptide fusion (C-terminal peptide) (PSI (0-1 scale)); higher = more stable (slower turnover); conditions: genetic background: wild type; temperature: 30 C
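Also: PSI is a weighted mean of sequencing reads over stability bins, variants kept only with over 10 reads, mCherry proximal and sfGFP distal, peptide attached via GGGS linker.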

NLETDRRRTYGM and NLETVAENMFLA are within error of each other in protein stability index: 0.697 ± 0.036 for the first, 0.71 ± 0.053 for the second.

NLEVNFKNIYVK and NLPERSRANTLS are within error of each other in protein stability index: 0.679 ± 0.038 for the first, 0.6749 ± 0.0061 for the second.

NLPLPPSPFALP and NLRLYDCKVAPP are within error of each other in protein stability index: 0.733 ± 0.053 for the first, 0.691 ± 0.036 for the second.

NLRQKQKKIKKT and NLYENQDHETYR are within error of each other in protein stability index: 0.642 ± 0.041 for the first, 0.651 ± 0.13 for the second.

NMPGALETKMGV and NNIMKPKRKIIK are within error of each other in protein stability index: 0.599 ± 0.054 for the first, 0.683 ± 0.031 for the second.

NNRLSEDVLCEY and NNTVRTPKLSIE are within error of each other in protein stability index: 0.665 ± 0.078 for the first, 0.71584 ± 0.00044 for the second.

Compared with NPLRVRNNNDGL, NPLSSPSLPPSS is lower in protein stability index: 0.745 ± 0.047 for the first, 0.625 ± 0.057 for the second.

NPPAPPAPHLST and NPRGAKRRNSRK are within error of each other in protein stability index: 0.685 ± 0.013 for the first, 0.663 ± 0.058 for the second.

NPSNEKERRKKN and NPYLLCKFSTLL are within error of each other in protein stability index: 0.704 ± 0.02 for the first, 0.675 ± 0.028 for the second.

NQDIKAENTIKL and NQHNARTRWLCP are within error of each other in protein stability index: 0.668 ± 0.057 for the first, 0.645 ± 0.017 for the second.

NQNKENKEIDRK and NQSSTSEENSGG are within error of each other in protein stability index: 0.64 ± 0.097 for the first, 0.653 ± 0.024 for the second.

NQTVEQPLPTSL and NRAIVAYFPGMF are within error of each other in protein stability index: 0.708 ± 0.042 for the first, 0.666 ± 0.042 for the second.

NRDSALGPTWAP and NRDSPPAGEIHA are within error of each other in protein stability index: 0.718 ± 0.034 for the first, 0.648 ± 0.082 for the second.

NREPQPAHTHML and NRNDKNIERRKM are within error of each other in protein stability index: 0.684 ± 0.043 for the first, 0.69 ± 0.069 for the second.

NRTGVRIEIKGR and NSTLSSNATRVK are within error of each other in protein stability index: 0.636 ± 0.081 for the first, 0.727 ± 0.015 for the second.

NTDSHIKIRKKI and NTKEETKESRGR are within error of each other in protein stability index: 0.7032 ± 0.0068 for the first, 0.713 ± 0.059 for the second.

NTPSKKHDLNRL and NTSPTRLSCPVF are within error of each other in protein stability index: 0.707 ± 0.033 for the first, 0.616 ± 0.11 for the second.

NTTITKMYTKEW and NVAKTTTRHNRP are within error of each other in protein stability index: 0.714 ± 0.05 for the first, 0.718 ± 0.011 for the second.

NVEARLARVHWM and NVEPWTRGMGSA are within error of each other in protein stability index: 0.73 ± 0.12 for the first, 0.659 ± 0.02 for the second.

Compared with NVLSGIDKRLTI, NVLVRFFSSGVW is higher in protein stability index: 0.71 ± 0.053 for the first, 0.85 ± 0.047 for the second.

NVRCLVELGGEV and NWRCTLGWSWVR are within error of each other in protein stability index: 0.714 ± 0.058 for the first, 0.706 ± 0.058 for the second.

Going from NYAMRGSVRTDK to NYHAIANRILAK, the protein stability index falls from 0.665 ± 0.028 to 0.6026 ± 0.004.

First: NYIIRKTKERHK
Second: NYMQVSIKNKKE
The protein stability index of the first is higher: 0.781 ± 0.11 for the first, 0.641 ± 0.028 for the second.

NYNNGHNLKKER and NYYLPLESCTIG are within error of each other in protein stability index: 0.634 ± 0.012 for the first, 0.664 ± 0.03 for the second.

PAAFPRPTRHAA and PAASRPPSPSLL are within error of each other in protein stability index: 0.693 ± 0.067 for the first, 0.665 ± 0.046 for the second.

First: PAAVAQAFPLIT
Second: PACVLVRRGWYL
The protein stability index of the first is lower: 0.649 ± 0.05 for the first, 0.7277 ± 0.0029 for the second.

PAGPPHPCPHPS and PAHAPSLSPPPF are within error of each other in protein stability index: 0.708 ± 0.05 for the first, 0.697 ± 0.016 for the second.

PAKTEPGPLNHR and PAPLPPPPPPRP are within error of each other in protein stability index: 0.68 ± 0.02 for the first, 0.689 ± 0.015 for the second.

First: PAPLSRPLSPTL
Second: PAPPLPPPAAPP
The protein stability index of the first is higher: 0.6841 ± 0.0055 for the first, 0.576 ± 0.0069 for the second.

PAPPLPPPPSPY and PAPVFPILTPPY are within error of each other in protein stability index: 0.72 ± 0.11 for the first, 0.734 ± 0.059 for the second.

PARFPPLPFPPI and PARPEPPRANWR are within error of each other in protein stability index: 0.74 ± 0.035 for the first, 0.647 ± 0.058 for the second.

PASFAYRTLNMV and PASPLFAPSVVP are within error of each other in protein stability index: 0.661 ± 0.082 for the first, 0.747 ± 0.0086 for the second.

PASPPPRTISSP and PASRLHSPSSPP are within error of each other in protein stability index: 0.704 ± 0.064 for the first, 0.703 ± 0.038 for the second.

PATPPPLPPLSP and PATQTRKETRTP are within error of each other in protein stability index: 0.701 ± 0.054 for the first, 0.69 ± 0.059 for the second.

PATTVAKGSHQF and PAVISLLPVWFT are within error of each other in protein stability index: 0.717 ± 0.026 for the first, 0.691 ± 0.015 for the second.

PAWGEQYYGNVR and PAYTRDIRKPRH are within error of each other in protein stability index: 0.69 ± 0.057 for the first, 0.654 ± 0.051 for the second.

PCAPPTPAPLHP and PCDCAHPVLRPM are within error of each other in protein stability index: 0.6687 ± 0.0048 for the first, 0.634 ± 0.069 for the second.

PCHPRPPPASPP and PCHSPATRTLPC are within error of each other in protein stability index: 0.692 ± 0.096 for the first, 0.6824 ± 0.0025 for the second.

PCLSRFPGSPFL and PCPLPSPHPPPR are within error of each other in protein stability index: 0.6896 ± 0.0042 for the first, 0.717 ± 0.046 for the second.

Compared with PCPPHILAPPPS, PDGFTFVFSPES is lower in protein stability index: 0.713 ± 0.0091 for the first, 0.648 ± 0.038 for the second.

PDPARSPLTSSY and PDPGPPYPTPTA are within error of each other in protein stability index: 0.6569 ± 0.0024 for the first, 0.708 ± 0.066 for the second.

Compared with PDPPPLLPRLSL, PDPSTRASDRKR is lower in protein stability index: 0.701 ± 0.016 for the first, 0.648 ± 0.017 for the second.

Going from PDPSVERFRGLC to PDRGLRLKRILP, the protein stability index falls from 0.758 ± 0.095 to 0.5675 ± 0.0017.

PDRLPPPLLPPL and PDRYPPPPGRRG are within error of each other in protein stability index: 0.718 ± 0.028 for the first, 0.704 ± 0.014 for the second.

Compared with PDSHPPAPPSPP, PEAEPPPPPPPP is lower in protein stability index: 0.704 ± 0.031 for the first, 0.552 ± 0.028 for the second.

PEGPTPPSLKLS and PEMCEKRIKTPT are within error of each other in protein stability index: 0.6162 ± 0.0052 for the first, 0.634 ± 0.031 for the second.

PEQKKRKVKIKK and PERAPASRWTLS are within error of each other in protein stability index: 0.686 ± 0.16 for the first, 0.7362 ± 0.0049 for the second.

PESPLFPPLLPS and PESRAESAKPRD are within error of each other in protein stability index: 0.6599 ± 0.0018 for the first, 0.667 ± 0.019 for the second.

Compared with PEVRTNKQHQER, PFAGLFFFFVPF is lower in protein stability index: 0.746 ± 0.055 for the first, 0.58 ± 0.033 for the second.

Going from PFAPFIHNFGCT to PFAYFSRFLYFP, the protein stability index falls from 0.713 ± 0.023 to 0.633 ± 0.03.

PFGSSPLCGSSF and PFGTFFFPSFLL are the same in protein stability index: 0.683 ± 0.032 for the first, 0.683 ± 0.0032 for the second.

PFIDCEHIRGFN and PFIPPPRFPPPV are within error of each other in protein stability index: 0.735 ± 0.046 for the first, 0.835 ± 0.074 for the second.

PFLIPPRPFSFP and PFLRLLQTVGST are within error of each other in protein stability index: 0.709 ± 0.1 for the first, 0.593 ± 0.024 for the second.

First: PFLTSPPPLPLH
Second: PFMFLSSCSGFF
The protein stability index of the first is lower: 0.632 ± 0.031 for the first, 0.735 ± 0.019 for the second.

PFPAPPPPPPPP and PFPLSPPPPPLD are within error of each other in protein stability index: 0.678 ± 0.064 for the first, 0.761 ± 0.045 for the second.

PFPPPPVPHARR and PFPPPTPPPPLP are within error of each other in protein stability index: 0.775 ± 0.22 for the first, 0.751 ± 0.077 for the second.

First: PFPPRRPSATTL
Second: PFPSFFFCCISL
The protein stability index of the first is higher: 0.727 ± 0.045 for the first, 0.507 ± 0.0075 for the second.

PFRPPPLLPFSP and PFSGPVYSHNDV are within error of each other in protein stability index: 0.799 ± 0.13 for the first, 0.738 ± 0.08 for the second.

Going from PFSLIFSFFSEV to PFSSPPPLSLPP, the protein stability index falls from 0.7487 ± 0.0047 to 0.7308 ± 0.0011.

PGALILSNRFFS and PGAPPPASPPST are within error of each other in protein stability index: 0.685 ± 0.041 for the first, 0.714 ± 0.047 for the second.

PGCNLPLVPPRL and PGFFRLSLFPFA are within error of each other in protein stability index: 0.701 ± 0.018 for the first, 0.713 ± 0.0083 for the second.

First: PGGLHHGCSTPA
Second: PGGQGVRTDRPQ
The protein stability index of the first is higher: 0.724 ± 0.0087 for the first, 0.678 ± 0.025 for the second.

PGGTDGYSGLEK and PGIGMVCAVAEG are within error of each other in protein stability index: 0.689 ± 0.011 for the first, 0.687 ± 0.0082 for the second.

PGLSLPLPPPRP and PGLTAVVYRPAD are within error of each other in protein stability index: 0.703 ± 0.035 for the first, 0.724 ± 0.04 for the second.

PGPHGVVPTGNE and PGPPPPPPALLP are within error of each other in protein stability index: 0.6666 ± 0.0056 for the first, 0.658 ± 0.056 for the second.

First: PGPPSTAPHLPE
Second: PGPPTPPPPLYP
The protein stability index of the first is lower: 0.659 ± 0.018 for the first, 0.706 ± 0.012 for the second.

First: PGPTNSSLTASD
Second: PGSCAYHIFRFR
The protein stability index of the first is higher: 0.7667 ± 0.0037 for the first, 0.583 ± 0.0062 for the second.

PGSLPPPPPPPP and PGSLSLSPLLPS are within error of each other in protein stability index: 0.716 ± 0.016 for the first, 0.758 ± 0.037 for the second.

PGTGAASGTGGA and PGTLLHPLSVGR are within error of each other in protein stability index: 0.689 ± 0.012 for the first, 0.668 ± 0.019 for the second.

Going from PGWDSHRKILSQ to PHADFALFPFSP, the protein stability index rises from 0.68 ± 0.0083 to 0.785 ± 0.036.

Compared with PHAERASPDGLS, PHASLAPPLPPP is lower in protein stability index: 0.664 ± 0.063 for the first, 0.5801 ± 0.0042 for the second.

PHCPPPPSLSPP and PHFLNNRNTIRR are within error of each other in protein stability index: 0.791 ± 0.094 for the first, 0.714 ± 0.04 for the second.

PHHAPRPPPFAG and PHLPSSPSPYSP are within error of each other in protein stability index: 0.646 ± 0.05 for the first, 0.689 ± 0.0043 for the second.

PHPAPPPSPSPS and PHPATLPPPAPT are within error of each other in protein stability index: 0.715 ± 0.033 for the first, 0.699 ± 0.032 for the second.

PHPGVPPTFLSL and PHPLPSPSPPPH are within error of each other in protein stability index: 0.657 ± 0.11 for the first, 0.69228 ± 0.00045 for the second.

PHPPPVPAPPPP and PHPPSCPLTPPP are within error of each other in protein stability index: 0.663 ± 0.008 for the first, 0.666 ± 0.015 for the second.

PHPRPPLAPPLT and PHRPPPCLPFGS are within error of each other in protein stability index: 0.688 ± 0.038 for the first, 0.728 ± 0.039 for the second.

PHSGVVVRCPSG and PHSPLPAHPPCR are within error of each other in protein stability index: 0.704 ± 0.022 for the first, 0.745 ± 0.14 for the second.

PHSPPSLSPTPP and PHSPSSPTIPSS are within error of each other in protein stability index: 0.685 ± 0.06 for the first, 0.7363 ± 0.0069 for the second.

PHSSPSHRLSLP and PHTGVKRDIENE are within error of each other in protein stability index: 0.722 ± 0.035 for the first, 0.693 ± 0.092 for the second.
